± gives the uncertainty stated by the source.

This series is described as follows: abundance fitness (aPCA) (normalised: wild type 0, dead -1); higher = more abundant; growth selection in yeast, the domain comes from the species named. Particulars: Homo sapiens.
Regarding “E3 ubiquitin-protein ligase NEDD4-like G198S, Q96PU5”, the abundance fitness is -0.139 ± 0.057.

The substance “E3 ubiquitin-protein ligase NEDD4-like G198T, Q96PU5” had an abundance fitness of -0.239 ± 0.075. “E3 ubiquitin-protein ligase NEDD4-like G198V, Q96PU5” came in with an abundance fitness of -0.291 ± 0.062. As for “E3 ubiquitin-protein ligase NEDD4-like G198W, Q96PU5”, the figure is -0.324 ± 0.095; as for “E3 ubiquitin-protein ligase NEDD4-like G198Y, Q96PU5”, -0.049 ± 0.069; as for “E3 ubiquitin-protein ligase NEDD4-like G207A, Q96PU5”, -0.252 ± 0.052. Consider “E3 ubiquitin-protein ligase NEDD4-like G207D, Q96PU5”, for which the abundance fitness was -0.162 ± 0.056. The figure for “E3 ubiquitin-protein ligase NEDD4-like G207E, Q96PU5” is -0.312 ± 0.066; for “E3 ubiquitin-protein ligase NEDD4-like G207F, Q96PU5” it is -0.423 ± 0.056.

Substance “E3 ubiquitin-protein ligase NEDD4-like G207H, Q96PU5” returned an abundance fitness of -0.171 ± 0.066. As for “E3 ubiquitin-protein ligase NEDD4-like G207I, Q96PU5”, the figure is -0.96 ± 0.061; as for “E3 ubiquitin-protein ligase NEDD4-like G207K, Q96PU5”, -0.128 ± 0.063. The figure for “E3 ubiquitin-protein ligase NEDD4-like G207L, Q96PU5” is -0.432 ± 0.052; for “E3 ubiquitin-protein ligase NEDD4-like G207M, Q96PU5” it is -0.27 ± 0.067. With “E3 ubiquitin-protein ligase NEDD4-like G207N, Q96PU5”, the abundance fitness amounted to 0.042 ± 0.067. The figure for “E3 ubiquitin-protein ligase NEDD4-like G207P, Q96PU5” is -0.756 ± 0.053; for “E3 ubiquitin-protein ligase NEDD4-like G207Q, Q96PU5” it is -0.192 ± 0.069.

With “E3 ubiquitin-protein ligase NEDD4-like G207R, Q96PU5”, the abundance fitness is -0.252 ± 0.051.

“E3 ubiquitin-protein ligase NEDD4-like G207S, Q96PU5” yielded an abundance fitness of -0.182 ± 0.048.

The substance “E3 ubiquitin-protein ligase NEDD4-like G207T, Q96PU5” returned an abundance fitness of -0.419 ± 0.055. The figure for “E3 ubiquitin-protein ligase NEDD4-like G207V, Q96PU5” is -0.803 ± 0.056; for “E3 ubiquitin-protein ligase NEDD4-like G207W, Q96PU5” it is -0.738 ± 0.077.

Consider “E3 ubiquitin-protein ligase NEDD4-like G207Y, Q96PU5”, for which the abundance fitness was -0.397 ± 0.06. As for “E3 ubiquitin-protein ligase NEDD4-like H186A, Q96PU5”, the figure is -0.362 ± 0.069; as for “E3 ubiquitin-protein ligase NEDD4-like H186C, Q96PU5”, -0.282 ± 0.093; as for “E3 ubiquitin-protein ligase NEDD4-like H186D, Q96PU5”, 0.168 ± 0.082. The figure for “E3 ubiquitin-protein ligase NEDD4-like H186E, Q96PU5” is -1.69 ± 0.14; for “E3 ubiquitin-protein ligase NEDD4-like H186F, Q96PU5” it is -0.111 ± 0.12. “E3 ubiquitin-protein ligase NEDD4-like H186G, Q96PU5” had an abundance fitness of -0.461 ± 0.067.

Regarding “E3 ubiquitin-protein ligase NEDD4-like H186I, Q96PU5”, the abundance fitness came to 0.086 ± 0.12. For “E3 ubiquitin-protein ligase NEDD4-like H186K, Q96PU5”, the abundance fitness was -0.222 ± 0.079. The figure for “E3 ubiquitin-protein ligase NEDD4-like H186L, Q96PU5” is -0.185 ± 0.074; for “E3 ubiquitin-protein ligase NEDD4-like H186M, Q96PU5” it is -0.349 ± 0.1. In turn, “E3 ubiquitin-protein ligase NEDD4-like H186N, Q96PU5” returned an abundance fitness of -0.123 ± 0.13. The figure for “E3 ubiquitin-protein ligase NEDD4-like H186P, Q96PU5” is -0.292 ± 0.081; for “E3 ubiquitin-protein ligase NEDD4-like H186Q, Q96PU5” it is -0.511 ± 0.1; for “E3 ubiquitin-protein ligase NEDD4-like H186R, Q96PU5” it is -0.59 ± 0.061. “E3 ubiquitin-protein ligase NEDD4-like H186S, Q96PU5” displayed an abundance fitness of -0.185 ± 0.076. In the case of “E3 ubiquitin-protein ligase NEDD4-like H186T, Q96PU5”, the abundance fitness is -0.288 ± 0.11.

In turn, “E3 ubiquitin-protein ligase NEDD4-like H186V, Q96PU5” registered an abundance fitness of -0.045 ± 0.058. “E3 ubiquitin-protein ligase NEDD4-like H186W, Q96PU5” came in with an abundance fitness of -1.24 ± 0.064. As to “E3 ubiquitin-protein ligase NEDD4-like H186Y, Q96PU5”, the abundance fitness was -0.095 ± 0.12. “E3 ubiquitin-protein ligase NEDD4-like H214F, Q96PU5” came in with an abundance fitness of -0.07 ± 0.1.

“E3 ubiquitin-protein ligase NEDD4-like H214I, Q96PU5” came in with an abundance fitness of -0.005 ± 0.078.

Substance “E3 ubiquitin-protein ligase NEDD4-like H214K, Q96PU5” displayed an abundance fitness of 0.032 ± 0.081. As for “E3 ubiquitin-protein ligase NEDD4-like H214L, Q96PU5”, the figure is -0.05 ± 0.051.

“E3 ubiquitin-protein ligase NEDD4-like H214M, Q96PU5” came in with an abundance fitness of 0.011 ± 0.083. “E3 ubiquitin-protein ligase NEDD4-like H214N, Q96PU5” came in with an abundance fitness of -0.032 ± 0.11. Take “E3 ubiquitin-protein ligase NEDD4-like H214P, Q96PU5”: the abundance fitness is -0.063 ± 0.077. “E3 ubiquitin-protein ligase NEDD4-like H214Q, Q96PU5” came in with an abundance fitness of -0.211 ± 0.089. “E3 ubiquitin-protein ligase NEDD4-like H214R, Q96PU5”: the abundance fitness was -0.005 ± 0.068. The figure for “E3 ubiquitin-protein ligase NEDD4-like H214S, Q96PU5” is -0.035 ± 0.057; for “E3 ubiquitin-protein ligase NEDD4-like H214T, Q96PU5” it is -0.062 ± 0.067.

For “E3 ubiquitin-protein ligase NEDD4-like H214V, Q96PU5”, the abundance fitness is -0.026 ± 0.058. In the case of “E3 ubiquitin-protein ligase NEDD4-like H214W, Q96PU5”, the abundance fitness was -0.068 ± 0.066.

Substance “E3 ubiquitin-protein ligase NEDD4-like H214Y, Q96PU5” showed an abundance fitness of 0.035 ± 0.088. On to “E3 ubiquitin-protein ligase NEDD4-like H222C, Q96PU5”, for which the abundance fitness is -0.052 ± 0.094. On to “E3 ubiquitin-protein ligase NEDD4-like H222D, Q96PU5”, for which the abundance fitness turned out to be 0.071 ± 0.067. “E3 ubiquitin-protein ligase NEDD4-like H222E, Q96PU5” returned an abundance fitness of -0.013 ± 0.083. Substance “E3 ubiquitin-protein ligase NEDD4-like H222F, Q96PU5” showed an abundance fitness of -0.052 ± 0.089. For the substance “E3 ubiquitin-protein ligase NEDD4-like H222G, Q96PU5”, the abundance fitness was -0.07 ± 0.06. The figure for “E3 ubiquitin-protein ligase NEDD4-like H222I, Q96PU5” is -0.251 ± 0.1. For the substance “E3 ubiquitin-protein ligase NEDD4-like H222K, Q96PU5”, the abundance fitness stood at 0.251 ± 0.1. Consider “E3 ubiquitin-protein ligase NEDD4-like H222L, Q96PU5”, for which the abundance fitness was -0.088 ± 0.056. “E3 ubiquitin-protein ligase NEDD4-like H222M, Q96PU5” gave an abundance fitness of 0.173 ± 0.093. For “E3 ubiquitin-protein ligase NEDD4-like H222N, Q96PU5”, the abundance fitness is -0.027 ± 0.11.

Regarding “E3 ubiquitin-protein ligase NEDD4-like H222P, Q96PU5”, the abundance fitness was -0.133 ± 0.063. As for “E3 ubiquitin-protein ligase NEDD4-like H222Q, Q96PU5”, the figure is -0.022 ± 0.1; as for “E3 ubiquitin-protein ligase NEDD4-like H222R, Q96PU5”, -0.016 ± 0.057. Turning to “E3 ubiquitin-protein ligase NEDD4-like H222T, Q96PU5”, the abundance fitness amounted to 0.081 ± 0.076.

With “E3 ubiquitin-protein ligase NEDD4-like H222V, Q96PU5”, the abundance fitness is -0.045 ± 0.059. The figure for “E3 ubiquitin-protein ligase NEDD4-like H222W, Q96PU5” is -0.218 ± 0.071.

Substance “E3 ubiquitin-protein ligase NEDD4-like H222Y, Q96PU5” registered an abundance fitness of -0.171 ± 0.11. Turning to “E3 ubiquitin-protein ligase NEDD4-like K202A, Q96PU5”, the abundance fitness was -0.185 ± 0.06. The figure for “E3 ubiquitin-protein ligase NEDD4-like K202C, Q96PU5” is -0.253 ± 0.097; for “E3 ubiquitin-protein ligase NEDD4-like K202D, Q96PU5” it is -0.491 ± 0.064; for “E3 ubiquitin-protein ligase NEDD4-like K202E, Q96PU5” it is -0.295 ± 0.095. Substance “E3 ubiquitin-protein ligase NEDD4-like K202F, Q96PU5” displayed an abundance fitness of -0.49 ± 0.11.

For “E3 ubiquitin-protein ligase NEDD4-like K202G, Q96PU5”, the abundance fitness was -0.482 ± 0.06.

As for “E3 ubiquitin-protein ligase NEDD4-like K202H, Q96PU5”, the abundance fitness is -0.173 ± 0.078.

“E3 ubiquitin-protein ligase NEDD4-like K202I, Q96PU5” registered an abundance fitness of -0.193 ± 0.13.

“E3 ubiquitin-protein ligase NEDD4-like K202L, Q96PU5” displayed an abundance fitness of -0.205 ± 0.074. Turning to “E3 ubiquitin-protein ligase NEDD4-like K202M, Q96PU5”, the abundance fitness was -0.496 ± 0.1.

In the case of “E3 ubiquitin-protein ligase NEDD4-like K202N, Q96PU5”, the abundance fitness was -0.01 ± 0.11.

(Values after the Human Domainome abundance scans (Beltran et al. 2025).)
